Earlier results, collected in article PMC5148012.

Biological target: GP1bα (glycocalicin) glycocalicin (extracellular part) (Homo sapiens) (UniProt P07359)
UniProt P07359, sequence (P07359 17-506): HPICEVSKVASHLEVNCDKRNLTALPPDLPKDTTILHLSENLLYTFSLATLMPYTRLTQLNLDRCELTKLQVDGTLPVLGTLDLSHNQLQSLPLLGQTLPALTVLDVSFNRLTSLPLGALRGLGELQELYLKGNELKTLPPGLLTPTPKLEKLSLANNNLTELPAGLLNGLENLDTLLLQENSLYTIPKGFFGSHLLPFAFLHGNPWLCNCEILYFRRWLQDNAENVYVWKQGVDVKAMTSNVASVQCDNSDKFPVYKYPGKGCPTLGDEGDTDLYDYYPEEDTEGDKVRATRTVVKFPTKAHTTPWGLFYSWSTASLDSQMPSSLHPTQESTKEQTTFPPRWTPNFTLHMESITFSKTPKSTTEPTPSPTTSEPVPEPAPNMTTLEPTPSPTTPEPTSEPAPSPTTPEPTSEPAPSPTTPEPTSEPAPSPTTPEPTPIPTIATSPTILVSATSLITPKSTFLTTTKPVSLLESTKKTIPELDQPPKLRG

Kd: 44.2 µM
Substance: HbA (from UniProt P69905)
